Series [1] addresses T1, BSA (bovine serum albumin) (UniProt P02769 P02769:25-607). The series can be described thus: 6 uM BSA, no color change of array. The settings on record: label: Alexa Fluor 488. As to the method: (§1) Desired amount of detection targets were added into 10 μl multiplexed detection solution. Unless elsewhere mentioned, final concentration of detection targets was 0.5 μM for DNA targets, 6 μM for thrombin and 3 mM for ATP. The mixture was thoroughly mixed by vortexing and then incubated at room temperature for 30 min before imaging.
(§2) Two different aptamer binding targets were used: human α-thrombin and ATP (See Table 1). The DNA sequences of probe 3 and 4 are, in fact, the aptamer sequences for these two targets.

Series [2] deals with T2, alpha-thrombin (Homo sapiens, UniProt P00734;P00734 P00734:328-363,P00734:364-622). The series can be described thus: no color change of array; 6 uM thrombin, 1xTAE-Mg, RT. To be noted: label: Alexa Fluor 488; partially hybridised to anchor strand on DNA B tile. On the procedure:
as §1, §2

In series [3] the target is T2, alpha-thrombin.
Series [4] addresses alpha-thrombin (Homo sapiens, UniProt P00734;P00734 P00734:328-363,P00734:364-622). The series can be described thus: possibly CITED (ref 13); apparent Kd for strand-displacement probe; Table 1 labels of probes 3 and 4 appear swapped, Table 2 and sequence assign probe 3 to thro.
The target of series [5] is T1, BSA (bovine serum albumin). Put plainly: no significant 3MI fluorescence change on array. To be noted: label: 3MI at position 7.
Where [6] appears, read: partially hybridised to anchor strand on DNA B tile.

Where two headings read alike, the source gives them in different places.

T1 sequence (P02769 25-607, one chain of several): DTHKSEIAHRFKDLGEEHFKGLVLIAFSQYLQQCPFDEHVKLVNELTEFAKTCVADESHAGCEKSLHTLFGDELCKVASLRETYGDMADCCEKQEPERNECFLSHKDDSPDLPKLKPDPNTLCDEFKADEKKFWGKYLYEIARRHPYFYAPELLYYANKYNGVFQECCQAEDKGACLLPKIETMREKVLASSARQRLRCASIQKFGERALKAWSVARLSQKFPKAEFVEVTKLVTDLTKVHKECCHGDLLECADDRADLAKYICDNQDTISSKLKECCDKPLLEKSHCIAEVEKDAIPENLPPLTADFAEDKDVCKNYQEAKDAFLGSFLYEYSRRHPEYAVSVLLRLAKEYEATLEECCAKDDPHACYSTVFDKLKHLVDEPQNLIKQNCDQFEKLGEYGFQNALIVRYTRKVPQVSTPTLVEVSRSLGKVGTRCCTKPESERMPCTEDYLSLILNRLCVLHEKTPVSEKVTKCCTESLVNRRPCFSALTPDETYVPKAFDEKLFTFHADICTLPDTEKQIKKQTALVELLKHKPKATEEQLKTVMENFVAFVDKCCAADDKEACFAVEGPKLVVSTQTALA

Turning to TTTAACAGCAGTTGAGTTGATACTACTGGCCTAATTCCA (ssDNA) [Probe 2 (HIV probe)], the binding result (in series [1] (setting [6]); with alpha-thrombin [2]) was “no binding” throughout.
Consider CACTGACCTGGGGGAGTATTGCGGAGGAAGGT (ssDNA) [Probe 4 (ATP aptamer containing)], for which the binding result in series [1] (setting [6]) was “no binding”.
With CGTCTCTACCTGATTACTATTGCATCT (ssDNA) [Probe 1 (SARS probe)], the binding result (with alpha-thrombin [3]; in series [1] (setting [6])) was “no binding” in each case.
Turning to CACTGTGGTTGGTGTGGTTGG (ssDNA) [Probe 3 (thrombin aptamer containing)], the binding result in series [1] (partially hybridised to anchor strand on DNA B tile (8-12 bp)) is “no binding”. The Kd with alpha-thrombin [4] was ~400 nM.
For the molecule GGTTGGTGTGGTTGG (structured_DNA, dT7 replaced by 3-methylisoxanthopterin (3MI)) [3MI-TBA signaling aptamer on DNA tile array], the binding result in series [5] is listed as “no binding”.

The record behind these values is patent US20100009868, “Self-Assembled Combinatorial Encoding Nanoarrays for Multiplexed Biosensing” (The Arizona Board of Regents a body corporate acti ng for …, published 2010).
